Consider one molecule from paper PMC13462928 (2026).

This assay has as its target NUDT5 (Homo sapiens, UniProt Q9UKK9, dNUDT5 ternary complex, engineered CRBNmidi). Kind of assay: proximity binding assay.

B1: CRBNmidi (protein)
chain: MAGEGDQQDAAHNMGNHLPLLPAESEEEDEMEVEDQDSKEAKKPNIINFDTSLPTSHTYLGADMEEFHGRTLHDDDSCQVIPVLPQVMMILIPGQTLPLQLFHPQEVSMVRNLIQKDRTFAVLAYSNVQEREAQFGTTAEIYAYREEQDFGIEIVKVKAIGRQRFKVLELRTQSDGIQQAKVQILPECVLPSTMSAVQLESLNKCQIFPSKPVSREDQCSYKWWQKYQKRKFHCANLTSWPRWLYSLYDAETLMDRIKKQLREWDENLKDDSLPSNPIDFSYRVAACLPIDDVLRIQLLKIGSAIQRLRCELDIMNKCTSLCCKQCQETEITTKNEIFSLSLCGPMAAYVNPHGYVHETLTVYKACNLNLIGRPSTEHSWFPGYAWTVAQCKICASHIGWKFTATKKDMSPQKFWGLTRSALLPTIPDTEDEISPDKVILCL
B1: the affinity, expressed as Kd, was 0.34 nM.
